{
  "source": "paper PMC9734150",
  "about": "“Allosteric rescue of catalytically impaired ATP phosphoribosyltransferase variants links protein dynamics to active-site electrostatic preorganisation” (Nature Communications, 2022)",
  "molecules": {"B1": {"name": "R56A-PaHisGS (enzyme, Psychrobacter arcticus)", "chain": "MTEVTNSLPTSGLLNEANDEFLGLTLALSKGRILEETMPLLRAAGVELLEDPEASAKLIFPTSNPNVRVLILRASDVPTYVEHGAADFGVAGKDVLLEHGANHVYELLDLKIAQCKLMTAGVKDAPLPNRRLRIATKYVNVARAYFASQGQQVDVIKLYGSMELAPLVGLGDLIVDVVDTGNTLRANGLEARDHICDVSSRLIVNQVSYKRKFALLEPILDSFKNSINSTS", "notes": "HisGS, Psychrobacter arcticus, with R56A; made from the WT-PaHisGS expression vector"}, "B2": {"name": "R56A/K57A-PaHisGS (enzyme, Psychrobacter arcticus)", "chain": "MTEVTNSLPTSGLLNEANDEFLGLTLALSKGRILEETMPLLRAAGVELLEDPEASAALIFPTSNPNVRVLILRASDVPTYVEHGAADFGVAGKDVLLEHGANHVYELLDLKIAQCKLMTAGVKDAPLPNRRLRIATKYVNVARAYFASQGQQVDVIKLYGSMELAPLVGLGDLIVDVVDTGNTLRANGLEARDHICDVSSRLIVNQVSYKRKFALLEPILDSFKNSINSTS", "notes": "HisGS, Psychrobacter arcticus, with R56A and K57A; made from the WT-PaHisGS expression vector"}, "B3": {"name": "C115S-PaHisGS (enzyme, Psychrobacter arcticus)", "chain": "MTEVTNSLPTSGLLNEANDEFLGLTLALSKGRILEETMPLLRAAGVELLEDPEASRKLIFPTSNPNVRVLILRASDVPTYVEHGAADFGVAGKDVLLEHGANHVYELLDLKIAQSKLMTAGVKDAPLPNRRLRIATKYVNVARAYFASQGQQVDVIKLYGSMELAPLVGLGDLIVDVVDTGNTLRANGLEARDHICDVSSRLIVNQVSYKRKFALLEPILDSFKNSINSTS", "notes": "HisGS, Psychrobacter arcticus, with C115S; made from the WT-PaHisGS expression vector"}, "B4": {"name": "WT-PaHisGS (Psychrobacter arcticus ATP phosphoribosyltransferase catalytic subunit HisGS) (enzyme)", "chain": "MTEVTNSLPTSGLLNEANDEFLGLTLALSKGRILEETMPLLRAAGVELLEDPEASRKLIFPTSNPNVRVLILRASDVPTYVEHGAADFGVAGKDVLLEHGANHVYELLDLKIAQCKLMTAGVKDAPLPNRRLRIATKYVNVARAYFASQGQQVDVIKLYGSMELAPLVGLGDLIVDVVDTGNTLRANGLEARDHICDVSSRLIVNQVSYKRKFALLEPILDSFKNSINSTS", "notes": "HisGS, catalytic subunit of short-form ATP phosphoribosyltransferase, Psychrobacter arcticus"}, "B5": {"name": "R32A-PaHisGS (enzyme, Psychrobacter arcticus)", "chain": "MTEVTNSLPTSGLLNEANDEFLGLTLALSKGAILEETMPLLRAAGVELLEDPEASRKLIFPTSNPNVRVLILRASDVPTYVEHGAADFGVAGKDVLLEHGANHVYELLDLKIAQCKLMTAGVKDAPLPNRRLRIATKYVNVARAYFASQGQQVDVIKLYGSMELAPLVGLGDLIVDVVDTGNTLRANGLEARDHICDVSSRLIVNQVSYKRKFALLEPILDSFKNSINSTS", "notes": "HisGS, Psychrobacter arcticus, with R32A; made from the WT-PaHisGS expression vector"}, "B6": {"name": "PaHisZ (Psychrobacter arcticus ATP phosphoribosyltransferase regulatory protein HisZ) (natural protein)", "chain": "MLPDGVADVLFEDAHKQEVLRHQLTQQLITHGYQLVSPPMIEFTESLLSGASEDLKRQTFKIIDQLTGRLMGIRADITPQILRIDAHHGGDGIARYCYAGDVIHTLPSGLFGSRTPLQLGAEIFGCESIAADIELIDVLFSMINSLDMSAVLHVDLGHVTIFKRLAELAALSASDTEQLMQLYANKNLPELKQVCQVLPMGSDFYTLARFGHDIANLLGRLSENAQQDTKIVTAIDELQRLKAHLQVQWQCAVSIDVTELSGYHYHTGIVFNGYINSETQPLVRGGRFDGMKSNQLATNQPRQATGFSMDVSRLLAHTQLDAPFIVLIDYDAFNNLDSAQRQLLLQQVASLRQQGYRVTMPLTAEDMPVGLTHRLSLADNQWRLHAV", "notes": "HisZ, regulatory subunit of short-form ATP phosphoribosyltransferase, Psychrobacter arcticus; also called WT-PaHisZ"}},
  "key": {"[1]": {"target": "WT-PaHisGS (Psychrobacter arcticus ATP phosphoribosyltransferase catalytic subunit HisGS) (Psychrobacter arcticus) (UniProt Q4FQF7)", "experiment": "enzyme activity titration (initial rate against HisZ concentration); apparent KD; fixed PaHisGS variant, HisZ (PaHisZ, His-tagged PaHisZ or AbHisZ) varied; initial velocities at 20 °C in 100 mM tricine, 100 mM KCl, 15 mM MgCl2, 4 mM DTT, pH 8.5, 5.6 mM ATP, 2 mM PRPP; fit to Eq. (3), or to Eq. (5) for R56A-PaHisGS with AbHisZ"}, "[2]": {"target": "WT-PaHisGS (Psychrobacter arcticus ATP phosphoribosyltransferase catalytic subunit HisGS) (Psychrobacter arcticus) (UniProt Q4FQF7)"}, "[3]": {"target": "R56A-PaHisGS (Psychrobacter arcticus) (UniProt Q4FQF7)"}, "[4]": {"target": "the molecule itself", "experiment": "SEC; Superdex 200 10/300 GL, 4 °C, 20 mM HEPES pH 8.0; 1 mg/mL protein pre-incubated with 2 mM DTT"}, "[5]": {"target": "AbHisZ (Acinetobacter baumannii HisZ)", "experiment": "enzyme activity titration (initial rate against HisZ concentration); apparent KD; fixed PaHisGS variant, HisZ (PaHisZ, His-tagged PaHisZ or AbHisZ) varied; initial velocities at 20 °C in 100 mM tricine, 100 mM KCl, 15 mM MgCl2, 4 mM DTT, pH 8.5, 5.6 mM ATP, 2 mM PRPP; fit to Eq. (3), or to …", "conditions": "other: enzyme activity titration (initial rate against HisZ concentration)"}, "[6]": {"target": "B6", "experiment": "enzyme activity titration (initial rate against HisZ concentration); apparent KD; fixed PaHisGS variant, HisZ (PaHisZ, His-tagged PaHisZ or AbHisZ) varied; initial velocities at 20 °C in 100 mM tricine, 100 mM KCl, 15 mM MgCl2, 4 mM DTT, pH 8.5, 5.6 mM ATP, 2 mM PRPP; fit to Eq. (3), or to Eq. (5) for R56A-PaHisGS with AbHisZ", "conditions": "both partners purified"}, "[7]": {"target": "the molecule itself", "experiment": "crystal structure; R56A-PaATPPRT (R56A-PaHisGS with PaHisZ) crystals soaked in PRPP and ATP; molecular replacement with PDB 6FU2"}, "R56A/K57A-PaHisGS": {"target": "B2", "experiment": "cell-based or functional assay"}, "R32A-PaHisGS [8]": {"target": "B5", "experiment": "cell-based or functional assay"}, "C115S-PaHisGS": {"target": "B3", "experiment": "cell-based or functional assay"}, "[9]": {"target": "B4", "experiment": "cell-based or functional assay"}, "R56A-PaHisGS [10]": {"target": "B1", "experiment": "cell-based or functional assay"}, "[11]": {"target": "T1, WT-PaHisGS (Psychrobacter arcticus ATP phosphoribosyltransferase catalytic subunit HisGS) (Psychrobacter arcticus, UniProt Q4FQF7 1-231)", "T1 chain": "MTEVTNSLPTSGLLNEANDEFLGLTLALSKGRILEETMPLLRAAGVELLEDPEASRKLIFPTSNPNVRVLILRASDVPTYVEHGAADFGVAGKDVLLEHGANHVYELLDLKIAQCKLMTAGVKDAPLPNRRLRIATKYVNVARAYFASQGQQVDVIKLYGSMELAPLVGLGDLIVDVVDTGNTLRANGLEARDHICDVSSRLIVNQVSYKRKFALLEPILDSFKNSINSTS"}, "R56A-PaHisGS [12]": {"target": "T2, R56A-PaHisGS (Psychrobacter arcticus, UniProt Q4FQF7 1-231, R56A)", "T2 sequence": "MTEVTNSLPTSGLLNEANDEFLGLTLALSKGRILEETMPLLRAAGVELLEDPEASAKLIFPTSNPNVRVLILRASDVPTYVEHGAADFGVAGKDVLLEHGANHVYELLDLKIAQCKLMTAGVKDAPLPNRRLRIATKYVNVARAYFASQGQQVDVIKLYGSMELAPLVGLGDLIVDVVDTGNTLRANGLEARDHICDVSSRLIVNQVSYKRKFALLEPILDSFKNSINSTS"}, "R32A-PaHisGS [13]": {"target": "T3, R32A-PaHisGS (Psychrobacter arcticus, UniProt Q4FQF7 1-231, R32A)", "T3 sequence": "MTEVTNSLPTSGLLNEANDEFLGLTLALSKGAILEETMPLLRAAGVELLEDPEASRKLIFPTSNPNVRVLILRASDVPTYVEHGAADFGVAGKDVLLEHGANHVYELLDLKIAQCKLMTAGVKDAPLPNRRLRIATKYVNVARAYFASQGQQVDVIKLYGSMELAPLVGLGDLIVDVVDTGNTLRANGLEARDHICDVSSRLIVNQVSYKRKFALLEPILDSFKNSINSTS"}, "R56K-PaHisGS": {"target": "T4, R56K-PaHisGS (Psychrobacter arcticus, UniProt Q4FQF7 1-231, R56K)", "T4 sequence": "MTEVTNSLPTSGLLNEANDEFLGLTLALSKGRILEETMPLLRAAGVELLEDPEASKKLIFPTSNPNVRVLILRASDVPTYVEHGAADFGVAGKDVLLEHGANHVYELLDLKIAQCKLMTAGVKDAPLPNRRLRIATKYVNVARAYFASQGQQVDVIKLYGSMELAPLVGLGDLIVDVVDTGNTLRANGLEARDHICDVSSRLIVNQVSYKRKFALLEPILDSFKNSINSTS", "experiment": "cell-based or functional assay"}},
  "data": [
    {"molecule": "AbHisZ (Acinetobacter baumannii HisZ) (natural protein)", "values": [
      {"measurement": "Kd", "setting": "[1]", "value": 9, "unit": "µM"},
      {"measurement": "apparent kcat of the WT-PaHisGS/AbHisZ hybrid complex", "setting": "[2]", "value": 1.49, "unit": "s⁻¹"},
      {"measurement": "apparent kcat of the R56A-PaHisGS/AbHisZ hybrid complex", "setting": "[3]", "value": 0.22, "unit": "s⁻¹"}
    ]},
    {"molecule": "B1", "values": [
      {"measurement": "stoichiometry N", "setting": "[4]", "value": 2},
      {"measurement": "K0.5 (concentration of AbHisZ at the inflection point, Eq. 5)", "setting": "[5]", "value": "8.1 ± 0.4", "unit": "µM"},
      {"measurement": "Kd", "setting": "[6]", "value": 4000, "unit": "nM"}
    ]},
    {"molecule": "B2", "values": [
      {"measurement": "stoichiometry N", "setting": "[4]", "value": 2},
      {"measurement": "Kd", "setting": "[6]", "value": 5000, "unit": "nM"}
    ]},
    {"molecule": "B3", "values": [
      {"measurement": "stoichiometry N", "setting": "[4]", "value": 2},
      {"measurement": "Kd", "setting": "[6]", "value": 1700, "unit": "nM"}
    ]},
    {"molecule": "B4", "values": [
      {"measurement": "stoichiometry N", "setting": "[4]", "value": 2},
      {"measurement": "Kd", "setting": "[6]", "value": 440, "unit": "nM"}
    ]},
    {"molecule": "B5", "values": [
      {"measurement": "stoichiometry N", "setting": "[4]", "value": 2},
      {"measurement": "Kd", "setting": "[6]", "value": 490, "unit": "nM"}
    ]},
    {"molecule": "B6", "values": [
      {"measurement": "binding result", "setting": "[7]", "value": "binds"},
      {"measurement": "Activation by PaHisZ: ratio of kcat of PaATPPRT variant to v/ET of the PaHisGS mutant alone", "setting": "R56A/K57A-PaHisGS", "value": 521, "unit": "fold"},
      {"measurement": "Activation by PaHisZ: ratio of kcat of PaATPPRT variant to v/ET of the PaHisGS mutant alone", "setting": "R32A-PaHisGS [8]", "value": 208, "unit": "fold"},
      {"measurement": "Activation by PaHisZ: ratio of kcat of PaATPPRT variant to v/ET of the PaHisGS mutant alone", "setting": "C115S-PaHisGS", "value": 1860, "unit": "fold"},
      {"measurement": "Activation by PaHisZ: ratio of kcat of PaATPPRT to v/ET of PaHisGS alone", "setting": "[9]", "value": 29, "unit": "fold"},
      {"measurement": "Activation by PaHisZ: ratio of kcat of PaATPPRT variant to v/ET of the PaHisGS mutant alone", "setting": "R56A-PaHisGS [10]", "value": 250, "unit": "fold"},
      {"measurement": "Kd", "setting": "[11]", "value": 60, "unit": "nM"},
      {"measurement": "Kd", "setting": "R56A-PaHisGS [12]", "value": 200, "unit": "nM"},
      {"measurement": "Kd", "setting": "R32A-PaHisGS [13]", "value": 30, "unit": "nM"},
      {"measurement": "activation of the R56K-PaHisGS (6 µM) reaction rate by PaHisZ (20 µM)", "setting": "R56K-PaHisGS", "value": "~11", "unit": "fold"}
    ]}
  ]
}
